Measurements taken from patent US20250197496A1 (EVOLVELMMUNE THERAPEUTICS, published 2025).

Key:
Human ULBP6-His = target: T1, Human ULBP6-His (human, UniProt Q5VY80 26-218, limits assumed); experiment: BLI, antibody on AHC sensor
T1 construct: bought (R&D Systems), His tag; also called RAET1L
T1 sequence: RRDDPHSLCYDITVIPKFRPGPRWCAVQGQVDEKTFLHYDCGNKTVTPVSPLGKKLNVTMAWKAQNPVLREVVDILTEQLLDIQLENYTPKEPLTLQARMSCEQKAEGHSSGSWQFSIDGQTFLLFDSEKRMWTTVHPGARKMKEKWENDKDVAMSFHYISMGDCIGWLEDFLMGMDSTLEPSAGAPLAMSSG
Procedure: (§1) Bio-layer interferometry (BLI) was performed on the Octet RED384 (Sartorius). […] Subsequently, dissociation was measured over 600 seconds. The kinetic and affinity constants are determined by fitting the data to a 1:1 binding model using the Octet analysis software.

Human ULBP5-His = target: T2, Human ULBP5-His (human, UniProt Q6H3X3 26-223, limits assumed); experiment: BLI, antibody on AHC sensor
T2 construct: bought (R&D Systems), His tag; also called RAET1G
T2 sequence: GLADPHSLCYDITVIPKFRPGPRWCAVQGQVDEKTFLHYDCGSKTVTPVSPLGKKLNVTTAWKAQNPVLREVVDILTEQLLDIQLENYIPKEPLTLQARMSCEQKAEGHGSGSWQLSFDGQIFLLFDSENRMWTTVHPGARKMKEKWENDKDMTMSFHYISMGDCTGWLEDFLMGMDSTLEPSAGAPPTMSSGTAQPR
Procedure: as §1

[1] = target: T3, Human ULBP2 (recombinant) (human, UniProt Q9BZM5 26-217); experiment: BLI, antibody on AHC sensor
T3 construct: bought (R&D Systems) as ULBP2-Fc or ULBP2-His; also called recombinant ULBP2
T3 sequence: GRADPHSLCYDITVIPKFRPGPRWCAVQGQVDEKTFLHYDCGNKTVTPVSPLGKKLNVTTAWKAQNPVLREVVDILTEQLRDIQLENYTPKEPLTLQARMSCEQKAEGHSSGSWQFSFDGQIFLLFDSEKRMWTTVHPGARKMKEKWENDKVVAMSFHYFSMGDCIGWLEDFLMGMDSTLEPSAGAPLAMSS
Procedure: as §1

[2] = target: T4, human ULBP2 (26-216) displayed on yeast (human, UniProt Q9BZM5 26-216); experiment: flow cytometry on yeast displaying ULBP2; unstained control 385
T4 construct: also called Wild type; wild-type ULBP2
T4 sequence: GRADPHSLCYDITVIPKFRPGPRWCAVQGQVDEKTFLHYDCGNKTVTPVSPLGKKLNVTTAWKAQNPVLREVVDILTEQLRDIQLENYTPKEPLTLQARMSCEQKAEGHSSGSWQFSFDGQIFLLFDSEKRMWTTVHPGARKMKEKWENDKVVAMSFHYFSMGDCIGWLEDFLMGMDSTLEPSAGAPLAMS

[3] = target: T5, human ULBP2 (26-216) R106L displayed on yeast (human, UniProt Q9BZM5 26-216); experiment: as above
T5 construct: also called Human ULBP2 R106L; ULBP2 R106L
T5 chain: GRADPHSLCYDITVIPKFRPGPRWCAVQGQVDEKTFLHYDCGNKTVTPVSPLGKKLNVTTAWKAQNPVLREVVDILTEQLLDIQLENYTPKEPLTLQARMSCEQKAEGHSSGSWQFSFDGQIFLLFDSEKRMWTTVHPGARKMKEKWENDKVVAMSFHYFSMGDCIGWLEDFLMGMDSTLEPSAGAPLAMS

[4] = target: T6, human ULBP2 (26-216) D175A on yeast (human, UniProt Q9BZM5 26-216); experiment: yeast display FACS, 1 nM
T6 construct: fused to V5 tag and Aga2
T6 chain: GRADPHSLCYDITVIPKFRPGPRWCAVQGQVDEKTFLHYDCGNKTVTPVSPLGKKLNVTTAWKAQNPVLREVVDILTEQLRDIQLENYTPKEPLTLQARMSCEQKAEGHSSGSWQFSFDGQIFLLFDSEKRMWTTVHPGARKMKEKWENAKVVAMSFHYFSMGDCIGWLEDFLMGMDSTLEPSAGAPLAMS

[5] = target: T7, human ULBP2 (26-216) K171A on yeast (human, UniProt Q9BZM5 26-216); experiment: yeast display FACS, 1 nM
T7 construct: fused to V5 tag and Aga2
T7 chain: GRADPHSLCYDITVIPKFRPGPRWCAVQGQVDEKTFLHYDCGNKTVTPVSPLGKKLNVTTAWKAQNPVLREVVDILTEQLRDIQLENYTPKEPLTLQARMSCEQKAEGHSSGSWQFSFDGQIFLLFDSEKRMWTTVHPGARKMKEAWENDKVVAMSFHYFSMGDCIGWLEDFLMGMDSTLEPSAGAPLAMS

[6] = target: T8, human ULBP2 (26-216) F43A on yeast (human, UniProt Q9BZM5 26-216); experiment: yeast display FACS, 1 nM
T8 construct: fused to V5 tag and Aga2
T8 chain: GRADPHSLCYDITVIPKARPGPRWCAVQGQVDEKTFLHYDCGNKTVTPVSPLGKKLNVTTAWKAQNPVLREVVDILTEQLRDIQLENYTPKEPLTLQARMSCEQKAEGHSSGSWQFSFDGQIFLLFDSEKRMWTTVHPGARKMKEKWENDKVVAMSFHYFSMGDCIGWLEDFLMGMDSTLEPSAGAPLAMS

[7] = target: T9, human ULBP2 (26-216) P118A on yeast (human, UniProt Q9BZM5 26-216); experiment: yeast display FACS, 1 nM
T9 construct: fused to V5 tag and Aga2
T9 chain: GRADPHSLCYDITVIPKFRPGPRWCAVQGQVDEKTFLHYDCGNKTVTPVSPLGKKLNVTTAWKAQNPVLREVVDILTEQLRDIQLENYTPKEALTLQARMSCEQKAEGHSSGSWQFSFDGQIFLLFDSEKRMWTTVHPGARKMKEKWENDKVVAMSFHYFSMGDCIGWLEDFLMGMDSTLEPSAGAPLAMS

[8] = target: T3, Human ULBP2 (recombinant); experiment: SPR, biotinylated antigen on SA chip
Procedure: Surface plasmon resonance (SPR) was performed on the Biacore 8K+ (Cytiva). Biotin labelled proteins were captured using the Sensor chip SA (Cytiva). […] The association contact and dissociation time are 60-120 seconds and 120-420 seconds respectively. The chip surface is regenerated by injecting 10 mM glycine, pH 1.5, at a flow rate of 30 μL/min for 60 seconds. The kinetic and affinity constants are determined by fitting the data to a 1:1 binding model using the Biacore insight evaluation software.

B1: A06 (antibody, V domains shown)
VH: EVQLVQSGAEVKKPGESLKISCKGSGYAFSTSWMNWVRQMPGKGLEWMGRIYPGDGDTNYNGNFKGQVTISADKSISTAYLQWSSLKASDTAMYYCARGGELRLEAMDSWGQGTLVTVSS
VL: EIVMTQSPATLSLSPGERITLSCSASSSIHSNYLHWYQQKPGQAPRLLIYRTSNLASGIPARFSGSGSGTDFTLTISSLQPEDFAVYYCQQGFSIPFTFGQGTKLEIK
notes: humanized; also called humanized ULBP2 antibody A06; anti-ULBP2 antibody
With B1 the binding result (Human ULBP6-His) was “no binding (tested: 250 nM (highest concentration tested))”, the binding result (Human ULBP5-His) was “no binding (tested: 250 nM (highest concentration tested))” and the Kd [1] was 0.532 nM. For the same binder, the MFI [2] was 8030, the MFI [3] was 828 and the “Gate 1 Freq. of Total” value [4] was 0.17%. For the same binder, the “Gate 2 Freq. of Total” value [4] was 12.8%, the “Gate 3 Freq. of Total” value [4] was 41.7% and the “Gate 1 Freq. of Total” value [5] was 55.2%. The “Gate 2 Freq. of Total” value [5] was 12%, the “Gate 3 Freq. of Total” value [5] was 0.042% and the “Gate 1 Freq. of Total” value [6] was 0.22%. For the same binder, the “Gate 2 Freq. of Total” value [6] was 10.8%, the “Gate 3 Freq. of Total” value [6] was 40.9% and the “Gate 1 Freq. of Total” value [7] was 0.21%. For the same binder, the “Gate 2 Freq. of Total” value [7] was 2.78%, the “Gate 3 Freq. of Total” value [7] was 34.9% and the Kd [8] was 0.162 nM. It also gave a koff [8] of 0.000214 s⁻¹ and a kon [8] of 1.32e+06 M⁻¹ s⁻¹.

B2: E12 (antibody, V domains shown)
VH: QVQLVQSGAEVKKPGASVKVSCKASGYTFTNYDINWVRQAPGQGLEWMGWIYPGDGSTYYNEKFKGRVTMTRDTSTSTVYMELSSLRSEDTAVYYCARSGDYGLYYFDYWGQGTLVTVSS
VL: EIVLTQSPATLSLSPGERATLSCRASQSIGTSIHWYQQKPGQAPRLLIYFASESISGIPARFSGSGSGTDFTLTISSLEPEDFAVYYCQQSNSWPLYTFGGGTKVEIK
notes: humanized; also called humanized ULBP2 antibody E12; anti-ULBP2/5/6 antibody
With B2 the Kd (Human ULBP6-His) was 0.456 nM, the Kd (Human ULBP5-His) was 0.345 nM and the Kd [1] was 0.198 nM. For the same binder, the MFI [2] was 5180, the MFI [3] was 9160 and the Kd [8] was 0.22 nM. The koff [8] was 0.000211 s⁻¹ and the kon [8] was 957000 M⁻¹ s⁻¹.
